Test results taken from patent publication US20130209454A1.

Key:
Assay in all cases: cell-based or functional assay
[1] = molecular target: HIV-1 Env of strain BJOX025000.01.1 (HIV-1)
[2] = molecular target: HIV-1 Env of strain 62357_14_D3_4589 (HIV-1)
[3] = molecular target: Env of HIV-1 strain RHPA4259.7 (HIV-1)
[4] = molecular target: HIV-1 Env of strain ZM249M.PL1 (HIV-1)
[5] = molecular target: Env of HIV-1 strain Q23.17 (HIV-1)
[6] = molecular target: Env of HIV-1 strain 1012_11_TC21_3257 (HIV-1)
[7] = molecular target: Env of HIV-1 strain Q842.d12 (HIV-1)
[8] = molecular target: Env of HIV-1 strain ZM53M.PB12 (HIV-1)
[9] = molecular target: Env of HIV-1 strain 6041.v3.c23 (HIV-1)
[10] = molecular target: Env of HIV-1 strain CNE52 (HIV-1)
[11] = molecular target: Env of HIV-1 strain C1080.c03 (HIV-1)
[12] = molecular target: Env of HIV-1 strain Ce0682_E4 (HIV-1)
[13] = molecular target: HIV-1 Env of strain Ce2060_G9 (HIV-1)
[14] = molecular target: HIV-1 Env of strain AC10.0.29 (HIV-1)
[15] = molecular target: Env of HIV-1 strain 191955_A11 (HIV-1)
[16] = molecular target: Env of HIV-1 strain 231966.c02 (HIV-1)
[17] = molecular target: Env of HIV-1 strain Q259.d2.17 (HIV-1)
[18] = molecular target: HIV-1 Env of strain QH0692.42 (HIV-1)
[19] = molecular target: HIV-1 Env of strain CNE52 (HIV-1)
[20] = molecular target: Env of HIV-1 strain CAAN5342.A2 (HIV-1)
[21] = molecular target: HIV-1 Env of strain 7030102001E5(Rev) (HIV-1)
[22] = molecular target: Env of HIV-1 strain 1054_07_TC4_1499 (HIV-1)
[23] = molecular target: HIV-1 Env of strain Ce704809221_1B3 (HIV-1)
[24] = molecular target: Env of HIV-1 strain BJOX015000.11.5 (HIV-1)
[25] = molecular target: HIV-1 Env of strain T250-4 (HIV-1)
[26] = molecular target: HIV-1 Env of strain ZM53M.PB12 (HIV-1)
[27] = molecular target: HIV-1 Env of strain Ce1176_A3 (HIV-1)
[28] = molecular target: HIV-1 Env of strain 3415.v1.c1 (HIV-1)
[29] = molecular target: Env of HIV-1 strain ZM247v1(Rev-) (HIV-1)
[30] = molecular target: HIV-1 Env of strain C1080.c03 (HIV-1)
[31] = molecular target: Env of HIV-1 strain A07412M1.vrc12 (HIV-1)
[32] = molecular target: HIV-1 Env of strain ZM214M.PL15 (HIV-1)
[33] = molecular target: HIV-1 Env of strain Du172.17 (HIV-1)
[34] = molecular target: Env of HIV-1 strain TRO.11 (HIV-1)
[35] = molecular target: Env of HIV-1 strain SC05_8C11_2344 (HIV-1)
[36] = molecular target: Env of HIV-1 strain CAP210.2.00.E8 (HIV-1)
[37] = molecular target: HIV-1 Env of strain 1054_07_TC4_1499 (HIV-1)
[38] = molecular target: Env of HIV-1 strain 211-9 (HIV-1)
[39] = molecular target: Env of HIV-1 strain HIV-001428-2.42 (HIV-1)
[40] = molecular target: Env of HIV-1 strain X1632_S2_B10 (HIV-1)
[41] = molecular target: HIV-1 Env of strain X1193_c1 (HIV-1)
[42] = molecular target: Env of HIV-1 strain CNE19 (HIV-1)
[43] = molecular target: HIV-1 Env of strain 928-28 (HIV-1)
[44] = molecular target: HIV-1 Env of strain Ce0682_E4 (HIV-1)
[45] = molecular target: Env of HIV-1 strain 89-F1_2_25 (HIV-1)
[46] = molecular target: Env of HIV-1 strain Q769.d22 (HIV-1)
[47] = molecular target: Env of HIV-1 strain Ce1086_B2 (HIV-1)
[48] = molecular target: Env of HIV-1 strain CNE17 (HIV-1)
[49] = molecular target: Env of HIV-1 strain X2131_C1_B5 (HIV-1)
[50] = molecular target: Env of HIV-1 strain 1056_10_TA11_1826 (HIV-1)

NIH45-46 (antibody), sequence (VH): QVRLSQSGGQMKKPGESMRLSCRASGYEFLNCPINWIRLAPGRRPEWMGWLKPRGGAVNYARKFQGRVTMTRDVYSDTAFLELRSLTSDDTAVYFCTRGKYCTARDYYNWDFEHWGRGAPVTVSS
NIH45-46 (antibody), sequence (V domain): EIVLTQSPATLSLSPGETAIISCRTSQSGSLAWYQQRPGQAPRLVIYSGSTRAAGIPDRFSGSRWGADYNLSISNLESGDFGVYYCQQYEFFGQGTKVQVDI

## NIH45-46 (antibody)
[1]
  IC50, pseudovirus neutralization: 0.18 µg/mL
[2]
  IC50, pseudovirus neutralization: 0.06 µg/mL
[3]
  IC80: 0.047 µg/mL
[4]
  IC50, pseudovirus neutralization: 0.017 µg/mL
[5]
  IC80: 0.5 µg/mL
[6]
  IC80: 0.04 µg/mL
[7]
  IC80: 0.073 µg/mL
[8]
  IC80: 0.61 µg/mL
[9]
  IC80: 0.04 µg/mL
[10]
  IC80: 0.12 µg/mL
[11]
  IC80: 11.6 µg/mL
[12]
  IC80: 0.155 µg/mL
[13]
  IC50, pseudovirus neutralization: 0.058 µg/mL
[14]
  IC50, pseudovirus neutralization: 0.56 µg/mL
[15]
  IC80: 0.43 µg/mL
[16]
  IC80: 9.64 µg/mL
[17]
  IC80: 0.154 µg/mL
[18]
  IC50, pseudovirus neutralization: 0.72 µg/mL
[19]
  IC50, pseudovirus neutralization: 0.03 µg/mL
[20]
  IC80: 0.4 µg/mL
[21]
  IC50, pseudovirus neutralization: 0.14 µg/mL
[22]
  IC80: 0.404 µg/mL
[23]
  IC50, pseudovirus neutralization: 0.15 µg/mL
[24]
  IC80: 0.38 µg/mL
[25]
  IC50, pseudovirus neutralization: > 50 µg/mL
[26]
  IC50, pseudovirus neutralization: 0.175 µg/mL
[27]
  IC50, pseudovirus neutralization: 0.93 µg/mL
[28]
  IC50, pseudovirus neutralization: 0.022 µg/mL
[29]
  IC80: 24.5 µg/mL
[30]
  IC50, pseudovirus neutralization: 2.48 µg/mL
[31]
  IC80: 0.13 µg/mL
[32]
  IC50, pseudovirus neutralization: 0.17 µg/mL
[33]
  IC50, pseudovirus neutralization: > 50 µg/mL
[34]
  IC80: 7.49 µg/mL
[35]
  IC80: 0.38 µg/mL
[36]
  IC80: > 50 µg/mL
[37]
  IC50, pseudovirus neutralization: 0.113 µg/mL
[38]
  IC80: > 50 µg/mL
[39]
  IC80: 0.01 µg/mL
[40]
  IC80: > 50 µg/mL
[41]
  IC50, pseudovirus neutralization: 0.021 µg/mL
[42]
  IC80: 0.37 µg/mL
[43]
  IC50, pseudovirus neutralization: 0.23 µg/mL
[44]
  IC50, pseudovirus neutralization: 0.054 µg/mL
[45]
  IC80: > 50 µg/mL
[46]
  IC80: 0.033 µg/mL
[47]
  IC80: 0.28 µg/mL
[48]
  IC80: 0.734 µg/mL
[49]
  IC80: 0.88 µg/mL
[50]
  IC80: 0.447 µg/mL
